First the molecules themselves.
B1: Glucocorticoid receptor, residues 419 to 494; numbered along this chain, P04150 (parent)
chain: KLCLVCSDEASGCHYGVLTCGSCKVFFKRAVEGQHNYLCAGRNDCIIDKIRRKNCPACRYRKCLQAGMNLEARKTK

± gives the uncertainty stated by the source.

In this data set the parent is B1. The data set can be described thus: abundance fitness (aPCA) (normalised: wild type 0, dead -1); higher = more abundant; growth selection in yeast, the domain comes from the species named. Particulars: Homo sapiens.
Regarding KLCLVCSDEASGCHYGVLTCGSCKVFFKRIVEGQHNYLCAGRNDCIIDKIRRKNCPACRYRKCLQAGMNLEARKTK [A30I], the abundance fitness was -0.071 ± 0.083.

In the case of KLCLVCSDEASGCHYGVLTCGSCKVFFKRMVEGQHNYLCAGRNDCIIDKIRRKNCPACRYRKCLQAGMNLEARKTK [A30M], the abundance fitness is 0.051 ± 0.053. For KLCLVCSDEASGCHYGVLTCGSCKVFFKTAVEGQHNYLCAGRNDCIIDKIRRKNCPACRYRKCLQAGMNLEARKTK [R29T], the abundance fitness was -0.029 ± 0.056. On to KLCLVCSDEASGCHYGVLTCGSCKVFFKHAVEGQHNYLCAGRNDCIIDKIRRKNCPACRYRKCLQAGMNLEARKTK [R29H], for which the abundance fitness was -0.071 ± 0.075.

With KLCLVCSDEASGCHYGVLTCGSCKVFFKMAVEGQHNYLCAGRNDCIIDKIRRKNCPACRYRKCLQAGMNLEARKTK [R29M], the abundance fitness is -0.113 ± 0.046. As to KLCLVCSDEASGCHYGVLTCGSCKVFFKEAVEGQHNYLCAGRNDCIIDKIRRKNCPACRYRKCLQAGMNLEARKTK [R29E], the abundance fitness came to 0.033 ± 0.05. Take KLCLVCSDEASGCHYGVLTCGSCKVFFKYAVEGQHNYLCAGRNDCIIDKIRRKNCPACRYRKCLQAGMNLEARKTK [R29Y]: the abundance fitness is -0.072 ± 0.1. For KLCLVCSDEASGCHYGVLTCGSCKVFFKFAVEGQHNYLCAGRNDCIIDKIRRKNCPACRYRKCLQAGMNLEARKTK [R29F], the abundance fitness was -0.152 ± 0.076.

As to KLCLVCSDEASGCHYGVLTCGSCKVFFKWAVEGQHNYLCAGRNDCIIDKIRRKNCPACRYRKCLQAGMNLEARKTK [R29W], the abundance fitness was -0.095 ± 0.046.

On to KLCLVCSDEASGCHYGVLTCGSCKVFFKNAVEGQHNYLCAGRNDCIIDKIRRKNCPACRYRKCLQAGMNLEARKTK [R29N], for which the abundance fitness was -0.007 ± 0.083.

As for KLCLVCSDEASGCHYGVLTCGSCKVFFKLAVEGQHNYLCAGRNDCIIDKIRRKNCPACRYRKCLQAGMNLEARKTK [R29L], the abundance fitness is -0.017 ± 0.034. The figure for KLCLVCSDEASGCHYGVLTCGSCKVFFKDAVEGQHNYLCAGRNDCIIDKIRRKNCPACRYRKCLQAGMNLEARKTK [R29D] is 0.02 ± 0.072; for KLCLVCSDEASGCHYGVLTCGSCKVFFKAAVEGQHNYLCAGRNDCIIDKIRRKNCPACRYRKCLQAGMNLEARKTK [R29A] it is -0.024 ± 0.042. The figure for KLCLVCSDEASGCHYGVLTCGSCKVFFKIAVEGQHNYLCAGRNDCIIDKIRRKNCPACRYRKCLQAGMNLEARKTK [R29I] is 0.018 ± 0.064. Then KLCLVCSDEASGCHYGVLTCGSCKVFFKSAVEGQHNYLCAGRNDCIIDKIRRKNCPACRYRKCLQAGMNLEARKTK [R29S], with -0.056 ± 0.039; and KLCLVCSDEASGCHYGVLTCGSCKVFFKQAVEGQHNYLCAGRNDCIIDKIRRKNCPACRYRKCLQAGMNLEARKTK [R29Q], with -0.072 ± 0.045; and KLCLVCSDEASGCHYGVLTCGSCKVFFKGAVEGQHNYLCAGRNDCIIDKIRRKNCPACRYRKCLQAGMNLEARKTK [R29G], with -0.057 ± 0.034. On to KLCLVCSDEASGCHYGVLTCGSCKVFFKKAVEGQHNYLCAGRNDCIIDKIRRKNCPACRYRKCLQAGMNLEARKTK [R29K], for which the abundance fitness worked out at 0.03 ± 0.059. With KLCLVCSDEASGCHYGVLTCGSCKVFFKCAVEGQHNYLCAGRNDCIIDKIRRKNCPACRYRKCLQAGMNLEARKTK [R29C], the abundance fitness was -0.077 ± 0.07.

KLCLVCSDEASGCHYGVLTCGSCKVFFFRAVEGQHNYLCAGRNDCIIDKIRRKNCPACRYRKCLQAGMNLEARKTK [K28F]: the abundance fitness was -0.086 ± 0.086. Then KLCLVCSDEASGCHYGVLTCGSCKVFFARAVEGQHNYLCAGRNDCIIDKIRRKNCPACRYRKCLQAGMNLEARKTK [K28A], with -0.056 ± 0.036; and KLCLVCSDEASGCHYGVLTCGSCKVFFSRAVEGQHNYLCAGRNDCIIDKIRRKNCPACRYRKCLQAGMNLEARKTK [K28S], with -0.068 ± 0.044.

As to KLCLVCSDEASGCHYGVLTCGSCKVFFGRAVEGQHNYLCAGRNDCIIDKIRRKNCPACRYRKCLQAGMNLEARKTK [K28G], the abundance fitness is -0.051 ± 0.031.

For the variant KLCLVCSDEASGCHYGVLTCGSCKVFFTRAVEGQHNYLCAGRNDCIIDKIRRKNCPACRYRKCLQAGMNLEARKTK [K28T], the abundance fitness was found to be 0.001 ± 0.042. Take KLCLVCSDEASGCHYGVLTCGSCKVFFIRAVEGQHNYLCAGRNDCIIDKIRRKNCPACRYRKCLQAGMNLEARKTK [K28I]: the abundance fitness is -0.064 ± 0.078. On to KLCLVCSDEASGCHYGVLTCGSCKVFFERAVEGQHNYLCAGRNDCIIDKIRRKNCPACRYRKCLQAGMNLEARKTK [K28E], for which the abundance fitness was determined as 0.007 ± 0.047. KLCLVCSDEASGCHYGVLTCGSCKVFFYRAVEGQHNYLCAGRNDCIIDKIRRKNCPACRYRKCLQAGMNLEARKTK [K28Y]: the abundance fitness stood at 0.001 ± 0.069.

As for KLCLVCSDEASGCHYGVLTCGSCKVFFQRAVEGQHNYLCAGRNDCIIDKIRRKNCPACRYRKCLQAGMNLEARKTK [K28Q], the abundance fitness came out at 0.014 ± 0.056. KLCLVCSDEASGCHYGVLTCGSCKVFFHRAVEGQHNYLCAGRNDCIIDKIRRKNCPACRYRKCLQAGMNLEARKTK [K28H]: the abundance fitness was -0.001 ± 0.065. Turning to KLCLVCSDEASGCHYGVLTCGSCKVFFLRAVEGQHNYLCAGRNDCIIDKIRRKNCPACRYRKCLQAGMNLEARKTK [K28L], the abundance fitness was -0.022 ± 0.036. As for KLCLVCSDEASGCHYGVLTCGSCKVFFNRAVEGQHNYLCAGRNDCIIDKIRRKNCPACRYRKCLQAGMNLEARKTK [K28N], the abundance fitness is -0.063 ± 0.058. On to KLCLVCSDEASGCHYGVLTCGSCKVFFRRAVEGQHNYLCAGRNDCIIDKIRRKNCPACRYRKCLQAGMNLEARKTK [K28R], for which the abundance fitness is -0.034 ± 0.033.

KLCLVCSDEASGCHYGVLTCGSCKVFFDRAVEGQHNYLCAGRNDCIIDKIRRKNCPACRYRKCLQAGMNLEARKTK [K28D]: the abundance fitness is -0.061 ± 0.069.

For KLCLVCSDEASGCHYGVLTCGSCKVFFPRAVEGQHNYLCAGRNDCIIDKIRRKNCPACRYRKCLQAGMNLEARKTK [K28P], the abundance fitness was -0.243 ± 0.047. Take KLCLVCSDEASGCHYGVLTCGSCKVFFMRAVEGQHNYLCAGRNDCIIDKIRRKNCPACRYRKCLQAGMNLEARKTK [K28M]: the abundance fitness was -0.002 ± 0.049. KLCLVCSDEASGCHYGVLTCGSCKVFFCRAVEGQHNYLCAGRNDCIIDKIRRKNCPACRYRKCLQAGMNLEARKTK [K28C]: the abundance fitness is -0.121 ± 0.069.

(Values after the Human Domainome abundance scans (Beltran et al. 2025).)
